The text below walks through data of patent publication US20030175278A1.

Common to all, as to test: Y2H β-galactosidase liquid culture assay (ONPG)
In assay [1] the target is PS1-COOH terminus Y2H bait (human).
Assay [2] deals with PS1-Loop Y2H bait (human).
Assay [3] has as its target PS2-Loop Y2H bait (human) (UniProt P49810).

PS2-Loop Y2H bait (human), sequence (P49810 271-361): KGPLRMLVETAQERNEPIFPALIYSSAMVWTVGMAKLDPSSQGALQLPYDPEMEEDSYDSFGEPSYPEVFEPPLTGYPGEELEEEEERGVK
PS1-Loop Y2H bait (human), sequence (P79802 273-380): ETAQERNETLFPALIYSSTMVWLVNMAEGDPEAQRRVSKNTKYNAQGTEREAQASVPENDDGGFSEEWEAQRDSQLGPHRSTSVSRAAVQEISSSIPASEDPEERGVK

“near full-length ubiquilin-prey clone (FIG. 2 III, construct H without GST), M37-S595 (from UniProt Q9UMX0 37-587)” gave a fold β-galactosidase activity compared with negative-control baits in assay [1] of over 12 fold. The interaction strength relative to the PS2-COOH-terminal bait in assay [2] and in assay [3] was 2 fold throughout.
